Assay results from PMC11059001.
Changes are numbered by the printed parent chain. Names may count otherwise.

B1: truncated Trichinella spiralis calreticulin TsCRT^Δ (22-209, GSG linker, 305-364) W323A; V325A (protein)
chain: MGSSHHHHHHSSGENLYFQGGSEPTIYLKETFDDGDAWKERWVQSKHKDDYGEWQLSHGKLFADENDMGLKTMQDARFYSLSRKFDKVVDNKDKPLVIVYTVKHEQDIDCGGGYIKLMLENTDLEDFNSDTPYRIMFGPDICGPEKRAVHSILWHDGKNYEKRKNAIAMADIFTHAYKLIIFPNNSYEIWVNNDKEAYGRLEDDWTMTEPGSGPVPELYRYKGLGAIGFELAQAKSGTIFDNILITDDPEYAKEFIDKQLEALRPIEKVESDK
B2: truncated Trichinella spiralis calreticulin TsCRT^Δ (22-209, GSG linker, 305-364) D139A; H149A (protein)
chain: EPTIYLKETFDDGDAWKERWVQSKHKDDYGEWQLSHGKLFADENDMGLKTMQDARFYSLSRKFDKVVDNKDKPLVIVYTVKHEQDIDCGGGYIKLMLENTDLEDFNSDTPYRIMFGPAICGPEKRAVASILWHDGKNYEKRKNAIAMADIFTHAYKLIIFPNNSYEIWVNNDKEAYGRLEDDWTMTEPGSGPVPELYRYKGLGAIGFELWQVKSGTIFDNILITDDPEYAKEFIDKQLEALRPIEKVESDK
B3: truncated Trichinella spiralis calreticulin TsCRT^Δ (22-209, GSG linker, 305-364) M135A; I151A (protein)
chain: B2 chain with M114A, A118D, A128H, I130A
B4: truncated Trichinella spiralis calreticulin TsCRT^Δ (22-209, GSG linker, 305-364) C141A; K145A (protein)
chain: B2 chain with A118D, C120A, K124A, A128H

molecular target: complement C1q, P02745;P02746;P02747; assay: MST; settings: chain shown with the change

Binder	Kd [µM]
B1	22.9
B2	19
B3	5.99
B4	34.8
